Literature values in publication PMC4518449 (Journal of chromatography. B, Analytical technologies in …, 2013).

Details: rapidly cleared by DPP-4

GLP-1
half-life in plasma: less than 2 min
